Data from US20140341809A1.

How the values were obtained:
…/HLA-A2 [1] = experiment: SPR, Biacore 3000, 25 C
…/HLA-A2 [2] = experiment: SPR, Biacore 3000, 25 C (FIG. 2B shows a kinetic titration for this pair)
…/HLA-A2 [3] = experiment: SPR, against wild-type DMF5

Kd (…/HLA-A2 [1]) | Kd (…/HLA-A2 [2]) | ΔΔG (…/HLA-A2 [3]) | Substance
1700 nM | 24 nM | – | high-affinity DMF5 variant αD27Y/βL95W (TCR)
680 nM | – | -1.6 kcal/mol | DMF5 TCR αD27W mutant
